Source: patent US20090317890

Target: T1, human fibrin (clot formed from human fibrinogen, Sigma, with human thrombin), P02671
T1 chain 1: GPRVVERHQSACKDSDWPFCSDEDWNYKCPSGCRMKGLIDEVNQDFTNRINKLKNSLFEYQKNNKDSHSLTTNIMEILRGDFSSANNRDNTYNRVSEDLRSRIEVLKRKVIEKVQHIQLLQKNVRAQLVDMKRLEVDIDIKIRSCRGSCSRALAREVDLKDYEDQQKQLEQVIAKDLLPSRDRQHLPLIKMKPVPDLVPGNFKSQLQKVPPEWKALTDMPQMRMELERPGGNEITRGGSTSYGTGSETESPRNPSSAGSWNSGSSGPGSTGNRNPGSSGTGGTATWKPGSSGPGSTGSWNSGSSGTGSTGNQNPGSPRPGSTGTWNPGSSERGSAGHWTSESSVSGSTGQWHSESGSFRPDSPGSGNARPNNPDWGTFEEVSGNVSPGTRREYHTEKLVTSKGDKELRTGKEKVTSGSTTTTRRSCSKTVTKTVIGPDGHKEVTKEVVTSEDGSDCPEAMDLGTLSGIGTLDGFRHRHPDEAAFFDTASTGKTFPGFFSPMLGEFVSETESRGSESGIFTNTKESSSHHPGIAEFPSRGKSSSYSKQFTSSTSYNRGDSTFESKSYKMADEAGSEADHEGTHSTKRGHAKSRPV
T1 chain 2: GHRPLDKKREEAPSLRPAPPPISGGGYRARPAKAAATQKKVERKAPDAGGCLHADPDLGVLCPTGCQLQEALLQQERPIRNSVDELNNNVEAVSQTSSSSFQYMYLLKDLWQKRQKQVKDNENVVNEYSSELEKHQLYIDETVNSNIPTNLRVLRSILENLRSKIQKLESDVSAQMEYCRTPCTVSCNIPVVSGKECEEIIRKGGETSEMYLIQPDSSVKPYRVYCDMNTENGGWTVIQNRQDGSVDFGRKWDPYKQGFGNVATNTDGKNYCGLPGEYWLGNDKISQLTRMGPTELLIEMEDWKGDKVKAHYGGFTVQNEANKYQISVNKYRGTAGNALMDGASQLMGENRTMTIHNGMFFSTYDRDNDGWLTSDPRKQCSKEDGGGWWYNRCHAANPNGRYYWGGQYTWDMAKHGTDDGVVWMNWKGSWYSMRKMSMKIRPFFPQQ
T1 chain 3: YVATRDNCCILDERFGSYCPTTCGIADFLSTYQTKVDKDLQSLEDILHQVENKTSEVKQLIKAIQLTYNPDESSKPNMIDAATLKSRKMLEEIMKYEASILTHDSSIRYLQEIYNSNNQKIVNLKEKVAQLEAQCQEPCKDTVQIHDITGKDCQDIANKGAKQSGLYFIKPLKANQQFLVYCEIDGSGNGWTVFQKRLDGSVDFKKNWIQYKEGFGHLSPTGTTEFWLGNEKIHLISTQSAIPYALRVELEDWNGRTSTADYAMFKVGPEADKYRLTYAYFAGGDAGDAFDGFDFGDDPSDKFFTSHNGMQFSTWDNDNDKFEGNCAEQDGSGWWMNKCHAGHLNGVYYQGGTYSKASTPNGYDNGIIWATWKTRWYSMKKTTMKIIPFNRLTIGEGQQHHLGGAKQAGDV

B1: recombinant zinc-dependent metalloprotease (fibrinolytic protease from metagenomic clone pES63H9) (protein)
chain: MEPEPIKTCTVLENPGYQPIHAPTDVSPQPVLAAMEAVPVPTPPPTVDAVMLFRKKWRDGKILRVHFMDGDPDVHRKVEEVAHTWSRHANVRFKFVDDPAADIRISFTQPGSWSYLGTDALRIARSQSTMNFGWLTPRSPDSEYNRVVIHEFGHALGLVHEHQNPDNGIPWNKPAVYEYYSGPPNNWSKEQVDTNLFQQYSEDQVRFTGFDRESIMLYPIPNEFTVGDFEVGWNRDLSADDKEFIGRMYPKPANELIVDDPPRASEISRYGEIDTYTFLVTQKGSYRIETDGRTDLVMLLYGPEDDTKLIAADDDSGRRLNPRITEELDWGKYTVRLQHFSQRQTGKYAVGVYRDDAAE
hydrolysis of the fibrin α-chain, SDS-PAGE time course at 37° C.: the purified enzyme completely hydrolyzed the α-chain and the γ-γ-chain at 37 °C after 1 h
hydrolysis of the fibrin β-chain, SDS-PAGE time course at 37° C.: The enzyme also partially hydrolyzed the β-chain after 30 min; however, it was not completely hydrolyzed after 2 h and even after 24 h (data not shown)
hydrolysis of the fibrin γ-γ-chain, SDS-PAGE time course at 37° C.: the purified enzyme completely hydrolyzed the α-chain and the γ-γ-chain at 37 °C after 1 h
